Laboratory results taken from US20240368285A1 (HEFEI TG IMMUNOPHARMA, published 2024).

Assays:
[1] = target: T1, MICA on human tumor cells (A-375, A549, HCT-15, MDA-MB-231) (human, UniProt Q29983 24-383); assay: flow cytometry on HCT-15 cells, Alexa-647 goat anti-human secondary, average fluorescence intensity
T1 construct: whole, on cells
T1 sequence (looked up): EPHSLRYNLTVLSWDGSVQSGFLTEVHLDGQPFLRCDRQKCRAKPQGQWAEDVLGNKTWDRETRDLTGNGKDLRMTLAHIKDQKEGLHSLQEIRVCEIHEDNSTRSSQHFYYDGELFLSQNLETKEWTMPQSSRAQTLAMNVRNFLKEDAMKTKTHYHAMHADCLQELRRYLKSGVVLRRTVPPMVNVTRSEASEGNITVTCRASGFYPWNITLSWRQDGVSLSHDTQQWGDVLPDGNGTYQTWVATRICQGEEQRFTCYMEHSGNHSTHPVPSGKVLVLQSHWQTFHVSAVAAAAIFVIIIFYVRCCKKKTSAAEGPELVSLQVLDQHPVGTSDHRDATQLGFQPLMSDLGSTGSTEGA
Experimental: (1) Tumor cells were diluted to a density of 2×10⁶/mL with PBS and then added into a 1.5 ml EP tube in a volume of 100 l/tube. 10 l/tube of goat serum was added into the EP tube; and blocking was conducted at 4° C. for 30 min. Antibody h5A1 (having a heavy chain sequence as set forth in SEQ ID NO: 11 and a light chain sequence as set forth in SEQ ID NO: 12), antibody h5A1002 (having a heavy chain sequence as set forth in SEQ ID NO: 13 and a light chain sequence as set forth in SEQ ID NO: 14), and control IgG1 (purchased from Biointron) were gradient-diluted (at a highest working concentration of 50 μg/ml, 10 gradients, diluted by 3 times for each gradient) and added. The tube was incubated at 4° C. for 30 min. 1 mL of PBS was added into the EP tube, and centrifugation was conducted 4° C. at a rate of 3,500 rpm for 5 min. The supernatant was removed. The EP tube was washed once with the PBS. The supernatant was removed after centrifugation. The cells were resuspended with PBS in a volume of 100 l/tube. An Alexa-647 labeled goat anti-human secondary antibody (purchased from Jackson lab) was added into the tube in a volume of 1 l/tube; and the plate was incubated in the dark at 4° C. for 30 min. The tube was washed twice with PBS, and the supernatant was removed after centrifugation. […]

[2] = target: T2, MICA004α3-Fc (human); assay: ELISA on coated MICA*004 α3-Fc (1 µg/ml), HRP anti-human Fab secondary, OD450
T2 construct: also called MICA*004-Fc; domain α3 of MICA-004 Fc fusion protein
T2 sequence (chain, as listed by the source limits assumed): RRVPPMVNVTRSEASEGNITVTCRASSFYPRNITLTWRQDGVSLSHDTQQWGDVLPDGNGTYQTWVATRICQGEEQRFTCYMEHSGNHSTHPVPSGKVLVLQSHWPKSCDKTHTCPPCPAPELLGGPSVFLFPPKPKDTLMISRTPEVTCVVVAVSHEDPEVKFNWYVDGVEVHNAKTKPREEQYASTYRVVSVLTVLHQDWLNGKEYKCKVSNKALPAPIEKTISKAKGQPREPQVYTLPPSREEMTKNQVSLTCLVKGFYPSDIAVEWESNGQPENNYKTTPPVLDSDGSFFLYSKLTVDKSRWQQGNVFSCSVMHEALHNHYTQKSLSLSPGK

B1: affinity maturation antibody h5A1002 (antibody, V domains shown)
VH: QVQLQESGPGLVKPSETLSLTCTVSGFSLTTYGGHWIRQPPGKGLEWIGMIWTDGWTDYNAAFISRVTISVDTSKNQFSLKLSSVTAADTAVYYCARKGHGYYYAMDYWGQGTLVTVSS
VL: EIVLTQSPGTLSLSPGERATLSCTASSSVSSSYLHWYQQKPGQAPRLLIYSTSNLISGIPDRFSGSGSGTDFTLTISRLEPEDFAVYYCHQYHRSPFTFGQGTKLEIKR
notes: Human IgG1, kappa; also called h5A1002-hIgG1
EC50 (read off the curve) [1]: ~1 µg/mL
EC50 (read off the curve) [2]: ~0.04 µg/mL
